In patent US20220073631A1 (QYUNS THERAPEUTICS, published 2022):
Where a chain is given by its changes, count along the chain named.

Key:
[1] = biological target: IL-4Rα on human cells (HEK Blue IL-4/IL-13, A549, TF-1, HFL-1, PBMCs) (human, UniProt P24394 26-825); experiment: cell-based or functional assay
[2] = biological target: T1, hIL-4Rα-Mu244 (human, UniProt P24394 26-232); experiment: SPR, Biacore T200, by the methods of Example 2
T1 construct: Printed positions fit the mature protein; also called S70Q/A71L/D72R; not shown: C-terminal his-tag
T1 chain: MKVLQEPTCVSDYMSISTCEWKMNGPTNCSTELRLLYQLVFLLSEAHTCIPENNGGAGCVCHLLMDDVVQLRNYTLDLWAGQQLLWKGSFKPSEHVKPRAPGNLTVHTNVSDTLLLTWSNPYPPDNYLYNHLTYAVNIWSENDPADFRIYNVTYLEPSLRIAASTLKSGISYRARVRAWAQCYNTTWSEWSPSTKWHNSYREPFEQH

[3] = biological target: T2, hIL-4Rα-Mu245 (human, UniProt P24394 26-232); experiment: SPR, Biacore T200, by the methods of Example 2
T2 construct: Printed positions fit the mature protein; also called A71L/D72R/N73A; not shown: C-terminal his-tag
T2 chain: T1 chain with Q70S, N73A

[4] = biological target: T3, hIL-4Rα-Mu241 (human, UniProt P24394 26-232); experiment: SPR, Biacore T200, by the methods of Example 2
T3 construct: Printed positions fit the mature protein; also called D67A/V68R/V69F; not shown: C-terminal his-tag
T3 chain: T1 chain with D67A, V68R, V69F, Q70S, L71A, R72D
Protocol: (§1) The protein A was chemically coupled to a CM5 chip, and an appropriate amount of the antibody was immobilized by a capture method such that the Rmax was less than 50 RU and the flow rate for the capture was 10 μl/min. The antigen was subject to gradient dilution, and the flow rate in the instrument was switched to 30 μl/min. The antigen was flowed through the reference channel and the channel with the immobilized antibody sequentially in an ascending order of concentration, and the running buffer was flowed through as a negative control. After each binding and dissociation was complete, the chip was regenerated with glycine, pH 1.5. Fitting was performed with the build-in software in the instrument according to a 1:1 binding model. The binding rate constant kₐ, the dissociation rate constant kd, and the equilibrium dissociation constant KD values of the antibody were calculated. Dupilumab was obtained by purchasing a commercially available medicine.
(§2) To further narrow down the key amino acids that PD2-31 binds to, multiple mutants of hIL-4Rα were designed in Loop 2 (V40FLLSEA46) and Loop 3 (M65[…]73) (Table 2). The wild-type hIL-4Rα (hIL-4Rα-ECD) and hIL-4Rα mutants were prepared using standard techniques. Briefly, the expression plasmids containing the extracellular domain of wild-type hIL-4Rα and different mutated hIL-4Rα were constructed and transfected into HEK 293F cells. After expression, the extracellular domain of wild-type hIL-4Rα and hIL-4Rα mutants with C-terminus his-tag were purified by Nickel chromatography. Purified proteins of wild-type hIL-4Rα and hIL-4Rα mutants were analyzed for interaction with PD2-31 and Dupilumab. The interaction was studied by Biacore T200, according to the methods in Example 2.

[5] = biological target: T4, hIL-4Rα-Mu242 (human, UniProt P24394 26-232); experiment: SPR, Biacore T200, by the methods of Example 2
T4 construct: Printed positions fit the mature protein; also called V68R/V69F/S70Q; not shown: C-terminal his-tag
T4 chain: T1 chain with V68R, V69F, L71A, R72D
Protocol: as §1, §2

[6] = biological target: T5, hIL-4Rα-Mu243 (human, UniProt P24394 26-232); experiment: SPR, Biacore T200, by the methods of Example 2
T5 construct: Printed positions fit the mature protein; also called V69F/S70Q/A71L; not shown: C-terminal his-tag
T5 chain: T1 chain with V69F, R72D
Protocol: as §1, §2

[7] = biological target: T6, hIL-4Rα-Mu453 (human, UniProt P24394 26-232); experiment: SPR, Biacore T200, by the methods of Example 2
T6 construct: Printed positions fit the mature protein; also called D66A/D67A; not shown: C-terminal his-tag
Protocol: as §1, §2

[8] = biological target: T7, hIL-4Rα-Mu239 (human, UniProt P24394 26-232); experiment: SPR, Biacore T200, by the methods of Example 2
T7 construct: Printed positions fit the mature protein; also called M65I/D66A/D67A; not shown: C-terminal his-tag
T7 chain: T1 chain with M65I, D66A, D67A, Q70S, L71A, R72D
Protocol: as §1, §2

[9] = biological target: T8, hIL-4Rα-Mu240 (human, UniProt P24394 26-232); experiment: SPR, Biacore T200, by the methods of Example 2
T8 construct: Printed positions fit the mature protein; also called D66A/D67A/V68R; not shown: C-terminal his-tag
T8 chain: T1 chain with D66A, D67A, V68R, Q70S, L71A, R72D
Protocol: as §1, §2

[10] = biological target: T9, human IL-4Rα (Shanghai Novoprotein Technology Co., Ltd) (human, UniProt P24394 26-232); experiment: SPR, Biacore T200, antibody captured on protein A, antigen as analyte, 25 C, 1:1 model
T9 construct: Bought protein; also called hIL-4Rα; human interleukin-4 receptor alpha
Protocol: as §1

B1: Dupilumab (antibody, V domains shown)
VH: EVQLVESGGGLEQPGGSLRLSCAGSGFTFRDYAMTWVRQAPGKGLEWVSSISGSGGNTYYADSVKGRFTISRDNSKNTLYLQMNSLRAEDTAVYYCAKDRLSITIRPRYYGLDVWGQGTTVTVSS
VL: DIVMTQSPLSLPVTPGEPASISCRSSQSLLYSIGYNYLDWYLQKSGQSPQLLIYLGSNRASGVPDRFSGSGSGTDFTLKISRVEAEDVGFYYCMQALQTPYTFGQGTKLEIKR
For B1, the “IC50, IL-4-induced CCL-11 release activity in HFL-1 cells (FIG. 7(A))” value [1] was 0.0968 µg/mL, the “IC50, IL-4-induced CCL-11 release activity in HFL-1 cells (FIG. 7(B))” value [1] was 0.0334 µg/mL and the “IC50, IL-4-induced CCL-17 release activity in A549 cells (FIG. 5(A))” value [1] was 0.0449 µg/mL. The “IC50, IL-4-induced CCL-17 release activity in A549 cells (FIG. 5(B))” value [1] was 0.0449 µg/mL, the “IC50, IL-4-induced CCL-17 release activity in PBMCs (FIG. 9(A))” value [1] was 0.029 µg/mL and the “IC50, IL-4-induced CCL-17 release activity in PBMCs (FIG. 9(B))” value [1] was 0.0436 µg/mL. For the same binder, the “IC50, IL-4-induced STAT6 phosphorylation activity in HEK Blue IL-4/IL-13 cells (FIG. 4(A))” value [1] was 0.00439 µg/mL, the “IC50, IL-4-induced STAT6 phosphorylation activity in HEK Blue IL-4/IL-13 cells (FIG. 4(B))” value [1] was 0.00454 µg/mL and the “IC50, IL-4-induced proliferation activity of TF-1 cells (FIG. 6(A))” value [1] was 0.0219 µg/mL. The “IC50, IL-4-induced proliferation activity of TF-1 cells (FIG. 6(B))” value [1] was 0.0188 µg/mL, the “IC50, IL-13-induced CCL-11 release activity in HFL-1 cells (FIG. 7(C))” value [1] was 0.0475 µg/mL and the “IC50, IL-13-induced CCL-11 release activity in HFL-1 cells (FIG. 7(D))” value [1] was 0.0869 µg/mL. For the same binder, the “IC50, IL-13-induced CCL-17 release activity in A549 cells (FIG. 5(C))” value [1] was 0.0373 µg/mL, the “IC50, IL-13-induced CCL-17 release activity in A549 cells (FIG. 5(D))” value [1] was 0.0465 µg/mL and the “IC50, IL-13-induced CCL-17 release activity in PBMCs (FIG. 9(C))” value [1] was 0.0984 µg/mL. For the same binder, the “IC50, IL-13-induced CCL-17 release activity in PBMCs (FIG. 9(D))” value [1] was 0.082 µg/mL, the “IC50, IL-13-induced STAT6 phosphorylation activity in HEK Blue IL-4/IL-13 cells (FIG. 4(C))” value [1] was 0.0128 µg/mL and the “IC50, IL-13-induced STAT6 phosphorylation activity in HEK Blue IL-4/IL-13 cells (FIG. 4(D))” value [1] was 0.0127 µg/mL. For the same binder, the “IC50, IL-13-induced proliferation activity of TF-1 cells (FIG. 6(C))” value [1] was 0.0205 µg/mL, the “IC50, IL-13-induced proliferation activity of TF-1 cells (FIG. 6(D))” value [1] was 0.0149 µg/mL and the Kd [2] was over 10 nM. For the same binder, the Kd [3] was over 10 nM, the Kd [4] was 41.2 nM and the koff [4] was 0.00444 s⁻¹. For the same binder, the kon [4] was 108000 M⁻¹ s⁻¹, the Kd [5] was 27.3 nM and the koff [5] was 0.00357 s⁻¹. The kon [5] was 131000 M⁻¹ s⁻¹, the Kd [6] was 0.0361 nM and the koff [6] was 3.41e-05 s⁻¹. The kon [6] was 945000 M⁻¹ s⁻¹, the Kd [7] was 0.196 nM and the koff [7] was 3.78e-05 s⁻¹. It also gave a kon [7] of 193000 M⁻¹ s⁻¹, a Kd [8] of 0.223 nM and a koff [8] of 5.63e-05 s⁻¹. It also gave a kon [8] of 253000 M⁻¹ s⁻¹, a Kd [9] of 4.07 nM and a koff [9] of 0.000421 s⁻¹. The kon [9] was 103000 M⁻¹ s⁻¹.

B2: QX005N (HZD82-12) (antibody, V domains shown)
VH: EVQLVESGGGLVQPGGSLRLSCAASGFSLNSNAVGWVRQAPGKGLEYIGFINFSGITYYANWAKGRFTISRDNSKNTLYLQMNSLRAEDTAVYYCARGSAGSFDLWGQGTLVTVSS
VL: DIQMTQSPSSLSASVGDRVTITCQASESVYKNNYLAWYQQKPGKAPKLLIYRASNLASGVPSRFSGSGSGTDFTLTISSLQPEDFATYYCQGGYSSGMYPFGQGTKVEIK
notes: Humanized from rabbit clone #82, expressed as a full antibody in ExpiCHO-S cells (heavy chain 48.3 kDa, light chain 23.6 kDa)
With B2 the “IC50, IL-4-induced CCL-11 release activity in HFL-1 cells (FIG. 7(B))” value [1] was 0.0643 µg/mL, the “IC50, IL-4-induced CCL-17 release activity in A549 cells (FIG. 5(B))” value [1] was 0.0461 µg/mL and the “IC50, IL-4-induced CCL-17 release activity in PBMCs (FIG. 9(B))” value [1] was 0.0678 µg/mL. For the same binder, the “IC50, IL-4-induced STAT6 phosphorylation activity in HEK Blue IL-4/IL-13 cells (FIG. 4(B))” value [1] was 0.0065 µg/mL, the “IC50, IL-4-induced proliferation activity of TF-1 cells (FIG. 6(B))” value [1] was 0.0193 µg/mL and the “IC50, IL-13-induced CCL-11 release activity in HFL-1 cells (FIG. 7(D))” value [1] was 0.0895 µg/mL. For the same binder, the “IC50, IL-13-induced CCL-17 release activity in A549 cells (FIG. 5(D))” value [1] was 0.0495 µg/mL, the “IC50, IL-13-induced CCL-17 release activity in PBMCs (FIG. 9(D))” value [1] was 0.117 µg/mL and the “IC50, IL-13-induced STAT6 phosphorylation activity in HEK Blue IL-4/IL-13 cells (FIG. 4(D))” value [1] was 0.0213 µg/mL. The “IC50, IL-13-induced proliferation activity of TF-1 cells (FIG. 6(D))” value [1] was 0.0161 µg/mL, the Kd [10] was 0.207 nM and the koff [10] was 9.9e-05 s⁻¹. For the same binder, the kon [10] was 481000 M⁻¹ s⁻¹.
